Key:
[1] = target: T1, recombinant human CD79b protein (human, UniProt P40259 29-159, limits assumed); assay: column EC50(ng/ml) of the drawn table; the table names no assay, the filing's only titration is the ELISA on recombinant human CD79b protein of FIG. 2B
T1 sequence (looked up): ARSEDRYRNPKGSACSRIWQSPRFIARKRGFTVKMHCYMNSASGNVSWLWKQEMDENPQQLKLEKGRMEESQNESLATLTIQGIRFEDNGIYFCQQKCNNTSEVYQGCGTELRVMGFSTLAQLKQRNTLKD

[2] = target: T1, recombinant human CD79b protein; assay: Octet assay
[3] = target: T1, recombinant human CD79b protein; assay: ELISA on recombinant human CD79b protein

EC50 [1]: 0.0162 µg/mL | Kd [2]: 1.44 nM | EC50 (read off the curve) [3]: ~0.02 µg/mL
B1: anti-human CD79b monoclonal antibody clone 14 (IgG1) (antibody, V domains shown)
VH: EVQLQESGPELKKPGETVKISCKASGYTFTDYSMHWVKQAPGKGLKWMGWINTETGEPTYADDFKGRFAFSLETSASTAYLQINNLKNDDTATYFCNMDSWGQGTSVTVSS
VL: QIVLTQSPAIMSASPGEKVTMTCSASSSVSYMWWYHQKPGSSPRLLIFDTSNLASGVPVRFSGSGSGTSYSLTISRMEAEDAATYYCQQWTSYPYTFGGGTKLEIK
notes: Murine hybridoma antibody, IgG1; It was conjugated with a fluorochrome for cell staining

Reference: patent US20210317209A1 (University of Texas, published 2021)
